Laboratory results: patent publication US20220002427A1 (ENGMAB SARL, published 2022)
“And” between values parts separate entries of the source, which are not always exact repeats. Identical values can stand only once.

Legend:
[1] = target: T1, human BCMA on cells (human, UniProt Q02223 1-184); test: flow cytometry on HEK-huBCMA cells, PE anti-human Fc detection
T1 construct: whole, on cells; also called huBCMA on HEK cells; HEK-huBCMA cells
T1 sequence (looked up): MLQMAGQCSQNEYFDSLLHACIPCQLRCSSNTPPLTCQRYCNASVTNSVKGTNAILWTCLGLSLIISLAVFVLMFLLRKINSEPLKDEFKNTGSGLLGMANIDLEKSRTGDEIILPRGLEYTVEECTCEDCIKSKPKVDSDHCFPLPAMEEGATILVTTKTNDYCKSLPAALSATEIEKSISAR

[2] = target: T2, recombinant cynomolgus BCMA Fc(kih) (cynomolgus, UniProt A0A2K5UD97 4-51); test: SPR (Biacore T200), IgG captured via anti-human Fab, BCMA Fc(kih) as analyte, 1:1 Langmuir fit
T2 sequence (A0A2K5UD97 entry or part of it): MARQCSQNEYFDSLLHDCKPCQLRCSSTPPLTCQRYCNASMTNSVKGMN
Protocol: (§1) Assessment of binding of anti-BCMA antibodies to recombinant BCMA by surface plasmon resonance (SPR) as follow. […] The avidity of the interaction between anti-BCMA antibodies and recombinant BCMA Fc(kih) (human and cynomolgus) was determined. Biotinylated recombinant human and cynomolgus BCMA Fc(kih) were directly coupled on a SA chip following instructions (Biacore, Freiburg/Germany). The immobilization level ranged from 200 to 700 RU. […] The dissociation was monitored for 180 seconds. Bulk refractive index differences were corrected for by subtracting the response obtained on the reference flow cell. Here, the anti-BCMA antibodies were flown over an empty surface previously activated and deactivated as described in the standard amine coupling kit. Apparent kinetic constants were derived using the Biacore T200 Evaluation Software (vAA, Biacore AB, Uppsala/Sweden), to fit rate equations for 1:1 Langmuir binding by numerical integration, despite the bivalency of the interaction for comparison purposes. The affinity of the interaction between anti-BCMA antibodies and recombinant human BCMA Fc(kih) was also determined. Anti-human Fab antibody (GE Healthcare) was directly coupled on a CMS chip at pH 5.0 using the standard amine coupling kit (Biacore, Freiburg/Germany). The immobilization level was about 6500 RU. […] The dissociation was monitored for 120 seconds. Bulk refractive index differences were corrected for by subtracting the response obtained on reference flow cell. […] Kinetic constants were derived using the Biacore T100 Evaluation Software (vAA, Biacore AB, Uppsala/Sweden), to fit rate equations for 1:1 Langmuir binding by numerical integration (Table 4).

[3] = target: T3, recombinant human BCMA Fc(kih) (human, UniProt Q02223 4-53, site-specifically biotinylated at the C-terminal avi-tag ; Biotin on the avi-tag at the C-terminus of the Fc knob chain (tag and Fc left out).); test: as above
T3 construct: Knobs-into-holes heterodimer carrying one BCMA ectodomain; also called huBCMA Fc(kih); huBCMA; not shown: human IgG1 hinge-Fc knob chain with C-terminal avi-tag, and the unfused Fc hole chain
T3 chain: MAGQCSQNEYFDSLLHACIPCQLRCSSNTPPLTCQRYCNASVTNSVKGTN
Protocol: as §1

[4] = target: T2, recombinant cynomolgus BCMA Fc(kih); test: ratio of SPR KD values (KD cynomolgus BCMA / KD human BCMA), reference human BCMA Fc(kih)
Protocol: The avidity of the interaction between anti-BCMA antibodies and recombinant BCMA Fc(kih) (human and cynomolgus) was determined. Biotinylated recombinant human and cynomolgus BCMA Fc(kih) were directly coupled on a SA chip following instructions (Biacore, Freiburg/Germany). The immobilization level ranged from 200 to 700 RU. […] The dissociation was monitored for 180 seconds. Bulk refractive index differences were corrected for by subtracting the response obtained on the reference flow cell. Here, the anti-BCMA antibodies were flown over an empty surface previously activated and deactivated as described in the standard amine coupling kit. Apparent kinetic constants were derived using the Biacore T200 Evaluation Software (vAA, Biacore AB, Uppsala/Sweden), to fit rate equations for 1:1 Langmuir binding by numerical integration, despite the bivalency of the interaction for comparison purposes. The affinity of the interaction between anti-BCMA antibodies and recombinant human BCMA Fc(kih) was also determined. Anti-human Fab antibody (GE Healthcare) was directly coupled on a CMS chip at pH 5.0 using the standard amine coupling kit (Biacore, Freiburg/Germany). The immobilization level was about 6500 RU. […] The dissociation was monitored for 120 seconds. Bulk refractive index differences were corrected for by subtracting the response obtained on reference flow cell. […] Kinetic constants were derived using the Biacore T100 Evaluation Software (vAA, Biacore AB, Uppsala/Sweden), to fit rate equations for 1:1 Langmuir binding by numerical integration (Table 4).
Based on the affinity values described in Example 2, the affinity of anti-BCMA antibodies to human BCMA vs. cynomolgus BCMA were compared and cyno/hu affinity ratio (gap) values were calculated (Table 5).

[5] = target: T4, murine BCMA extracellular domain, monomeric Fc-fusion (murine, UniProt O88472 1-49, site-specifically biotinylated at the C-terminal avi-tag); test: SPR one-shot kinetics (ProteOn XPR36), IgG captured from HEK293 supernatant via anti-human F(ab)2, BCMA as analyte
T4 construct: extracellular domain; also called muBCMA; mouse BCMA; not shown: hinge and Fc of human IgG1, knob chain; avi-tag; unfused human IgG1 Fc portion (hole chain)
T4 sequence (O88472 whole entry, the tested form may be a part): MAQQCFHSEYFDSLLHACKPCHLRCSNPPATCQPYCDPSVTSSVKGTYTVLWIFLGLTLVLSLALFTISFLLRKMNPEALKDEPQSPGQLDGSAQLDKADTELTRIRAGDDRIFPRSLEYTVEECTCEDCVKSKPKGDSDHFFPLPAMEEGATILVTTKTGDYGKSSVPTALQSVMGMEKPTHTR
Protocol: (§2) All experiments were performed at 25° C. using PBST as running buffer (10 mM PBS, pH 7.4 and 0.005% (v/v) Tween®20). A ProteOn XPR36 biosensor equipped with GLC and GLM sensor chips and coupling reagents (10 mM sodium acetate, pH 4.5, sulfo-N-hydroxysuccinimide, 1-ethyl-3-(3-dimethylaminopropyl)-carbodiimide hydrochloride [EDC] and ethanolamine) was purchased from BioRad Inc. (Hercules, Calif.). Immobilizations were performed at 30 μl/min. on a GLM chip. pAb (goat) anti hu IgG, F(ab)2 specific Ab (Jackson) was coupled in vertical direction using a standard amine-coupling procedure: all six ligand channels were activated for 5 min with a mixture of EDC (200 mM) and sulfo-NHS (50 mM). Immediately after the surfaces were activated, pAb (goat) anti hu IgG, F(ab)2 specific antibody (50 μg/ml, 10 mM sodium acetate, pH 5) was injected across all six channels for 5 min. Finally, channels were blocked with a 5 min injection of 1 M ethanolamine-HCl (pH 8.5). […] One-shot kinetic measurements were performed by injection of a dilution series of human, cyno and mouse BCMA (50, 10, 2, 0.4, 0.08, 0 nM, 50 μl/min) for 3 min along the vertical channels. Dissociation was monitored for 5 min Kinetic data were analyzed in ProteOn Manager v. 2.1. Processing of the reaction spot data involved applying an interspot-reference and a double-reference step using an inline buffer blank (Myszka, 1999). The processed data from replicate one-shot injections were fit to a simple 1:1 Langmuir binding model without mass transport (O'Shannessy et al., 1993).

[6] = target: T2, recombinant cynomolgus BCMA Fc(kih); test: as above
Protocol: as §2

[7] = target: T3, recombinant human BCMA Fc(kih); test: as above
Protocol: as §2

Binder | EC50 [1] | Kd [2] | koff [2] | kon [2] | Kd [3] | koff [3] | kon [3] | Affinity cyno/hu gap [4] | Kd [5] | Kd [6] | Kd [7]
Mab 21 IgG (antibody, V domains shown, also called antibody 21) VH: EVQLLESGGGLVQPGGSLRLSCAASGFTFSDNAMGWVRQAPGKGLEWVSAISGPGSSTYYADSVKGRFTISRDNSKNTLYLQMNSLRAEDTAVYYCAKVLGWFDYWGQGTLVTVSS VL: EIVLTQSPGTLSLSPGERATLSCRASQSVSEYYLAWYQQKPGQAPRLLIEHASTRATGIPDRFSGSGSGTDFTLTISRLEPEDFAVYYCQQYGYPPDFTFGQGTKVEIK | 2.46 nM and 0.35 µg/mL | 0.478 nM | 0.000235 s⁻¹ | 491000 M⁻¹ s⁻¹ | 0.0516 nM | 4.39e-05 s⁻¹ | 851000 M⁻¹ s⁻¹ | 9.3 fold | 0.73 nM | 0.051 nM | 0.028 nM
Mab 22 IgG (antibody, V domains shown, also called antibody 22; clone 22) VH: EVQLLESGGGLVQPGGSLRLSCAASGFTFSDNAMGWVRQAPGKGLEWVSAISGPGSSTYYADSVKGRFTISRDNSKNTLYLQMNSLRAEDTAVYYCAKVLGWFDYWGQGTLVTVSS VL: EIVLTQSPGTLSLSPGERATLSCRASQSVSSYYLAWYQQKPGQAPRLLISGAGSRATGIPDRFSGSGSGTDFTLTISRLEPEDFAVYYCQQYGYPPDFTFGQGTKVEIK | 2.08 nM and 0.3 µg/mL | 0.974 nM | 0.000442 s⁻¹ | 454000 M⁻¹ s⁻¹ | 0.0633 nM | 5.15e-05 s⁻¹ | 814000 M⁻¹ s⁻¹ | 15.4 fold | 0.9 nM | – | 0.048 nM
Mab 33 IgG (antibody, V domains shown) VH: EVQLLESGGGLVQPGGSLRLSCAASGFTFYTNAMGWVRQAPGKGLEWVSAINRFGGSTYYADSVKGRFTISRDNSKNTLYLQMNSLRAEDTAVYYCAKVLGWFDYWGQGTLVTVSS VL: EIVLTQSPGTLSLSPGERATLSCRASQSVSEYYLAWYQQKPGQAPRLLIEHASTRATGIPDRFSGSGSGTDFTLTISRLEPEDFAVYYCQQYGYPPDFTFGQGTKVEIK | 1.18 nM and 0.17 µg/mL | 0.739 nM | 9.76e-05 s⁻¹ | 132000 M⁻¹ s⁻¹ | 0.178 nM | 3.55e-05 s⁻¹ | 200000 M⁻¹ s⁻¹ | 4.2 fold | 0.49 nM | 0.034 nM | 0.017 nM
Mab 34 (antibody, V domains shown, IgG variant) VH: EVQLLESGGGLVQPGGSLRLSCAASGFTFYTNAMGWVRQAPGKGLEWVSAINRFGGSTYYADSVKGRFTISRDNSKNTLYLQMNSLRAEDTAVYYCAKVLGWFDYWGQGTLVTVSS VL: EIVLTQSPGTLSLSPGERATLSCRASQSVSSYYLAWYQQKPGQAPRLLISGAGSRATGIPDRFSGSGSGTDFTLTISRLEPEDFAVYYCQQYGYPPDFTFGQGTKVEIK | 1.24 nM and 0.18 µg/mL | – | – | – | – | – | – | – | – | – | –
Mab 39 IgG (antibody, V domains shown) VH: EVQLLESGGGLVQPGGSLRLSCAASGFTFTQNAMGWVRQAPGKGLEWVSAISPTGFSTYYADSVKGRFTISRDNSKNTLYLQMNSLRAEDTAVYYCAKVLGWFDYWGQGTLVTVSS VL: EIVLTQSPGTLSLSPGERATLSCRASQSVSEYYLAWYQQKPGQAPRLLIEHASTRATGIPDRFSGSGSGTDFTLTISRLEPEDFAVYYCQQYGYPPDFTFGQGTKVEIK | 1.73 nM and 0.25 µg/mL | 2.17 nM | 0.000467 s⁻¹ | 215000 M⁻¹ s⁻¹ | 0.155 nM | 5.58e-05 s⁻¹ | 361000 M⁻¹ s⁻¹ | 14 fold | – | 0.27 nM | 0.062 nM
Mab 28 (antibody, V domains shown, IgG variant) VH: EVQLLESGGGLVQPGGSLRLSCAASGFTFSSAPMGWVRQAPGKGLEWVSAISYIGHTYYADSVKGRFTISRDNSKNTLYLQMNSLRAEDTAVYYCAKVLGWFDYWGQGTLVTVSS VL: EIVLTQSPGTLSLSPGERATLSCRASQSVSSYYLAWYQQKPGQAPRLLISGAGSRATGIPDRFSGSGSGTDFTLTISRLEPEDFAVYYCQQYGYPPDFTFGQGTKVEIK | 11.3 nM and 1.63 µg/mL | – | – | – | – | – | – | – | – | – | –
Mab 44 (antibody, V domains shown, IgG variant) VH: EVQLLESGGGLVQPGGSLRLSCAASGFTFSSAPMGWVRQAPGKGLEWVSAISYIGHTYYADSVKGRFTISRDNSKNTLYLQMNSLRAEDTAVYYCAKVLGWFDYWGQGTLVTVSS VL: EIVLTQSPGTLSLSPGERATLSCRASQSVSDEYLSWYQQKPGQAPRLLIHSASTRATGIPDRFSGSGSGTDFTLAISRLEPEDFAVYYCQQYGYPPDFTFGQGTKVEIK | 1.55 nM and 0.22 µg/mL | – | – | – | – | – | – | – | – | – | –
Mab 14 (antibody, V domains shown, IgG variant (VH/VL combination)) VH: EVQLLESGGGLVQPGGSLRLSCAASGFTFYTNAMGWVRQAPGKGLEWVSAINRFGGSTYYADSVKGRFTISRDNSKNTLYLQMNSLRAEDTAVYYCAKVLGWFDYWGQGTLVTVSS VL: EIVLTQSPGTLSLSPGERATLSCRASQSVSDEYLSWYQQKPGQAPRLLIHSASTRATGIPDRFSGSGSGTDFTLAISRLEPEDFAVYYCQQYGYPPDFTFGQGTKVEIK | 1.47 nM and 0.21 µg/mL | – | – | – | – | – | – | – | – | – | –
